How the values were obtained:
[1] = molecular target: T1, human PDGFRα (Homo sapiens, UniProt P16234); assay: Human Phospho-PDGFRα ELISA; assay type: cell-based; details: HEL; Towne, AD169 and TR strains; IMC-3G3 10 μg/ml, 2 h pretreatment; HCMV MOI=1, 10 min
T1 construct: HEL cells that endogenously express PDGFRα; endogenous in cells; host or cells: HEL human embryonic lung fibroblasts (ATCC)
Experimental: (A) HEL cells stimulated with HCMV or PDGF-AA were subjected to immunoprecipitation and western blot analyses with indicated antibodies. (B) Phospho-PDGFRα ELISA of cells+/−pretreatment with IMC-3G3 (10 μg/ml, 2 h) followed by HCMV (MOI=1) or PDGF (10 ng/ml) for 10 min. Mean values (n=6)±S.D are shown. (C) Western blot of HEL mock, HCMV, or PDGF-AA stimulated (10 min), +/−IMC-3G3 (2 μg/ml) or Gleevec® (Imatinib) (100 nM). The same membrane was used for p-Akt^Ser 473 and Akt.
(A) Immunofluorescence detection of gB (upper panels) and PDGFRα (lower panels) in PDGFRα KO cells and PDGFRα overexpressing (OE) cells, following incubation with the gB peptide or mock treatment. Reduced PDGFRα surface staining in gB-treated cells is likely due to receptor internalization. (B) and (C) Immunoprecipitation of PDGFRα and gB from HEL lysates and full-length soluble gB alone or pre-incubated together. Immunoprecipitates were subjected to western blot with the indicated antibodies. (D) ELISA of hPDGFRα phosphorylation after HCMV stimulation (MOI=1), PDGF (10 ng/ml) or recombinant soluble gB (30 μg/ml) in presence or absence of gB neutralizing antibodies 7-17 and Mab 758 (5 μg/ml); bars, ±S.D. (E) Portions of same lysates used in (D) were analyzed by western blot with indicated antibodies.
Human Phospho-PDGFRα ELISA. […] Reaction products were read using a microplate reader set at 450 nm. […]

[2] = tested on: PI3-K/Akt signaling; assay type: cell-based, human; details: HEL; 10 min stimulation; IMC-3G3 2 μg/ml or Gleevec 100 nM; p-Akt Ser 473
Experimental: HEL cells pretreated with blocking reagents (as indicated; 30 min, 37 C) were stimulated for 10 min with HCMV, PDGF-AA (5 ng/ml), or mock-treated. Cell lysates were collected in RIPA buffer (supplemented with protease and phosphatase inhibitors) and subjected to Western blot analysis.
For stimulation experiments, cells were serum-starved for 24 h, followed by stimulation with HCMV (MOI of 0.5), PDGF-AA (5-10 ng/ml, from R&D Systems), or mock, for 10 minutes. In some cases, cells were pre-treated with IMC-3G3 (ImClone Inc.) at 10 g/ml (2 or 12 h) or Gleevec® (100 nM, 1 h) prior to HCMV exposure. Cell lysates were analyzed by SDS-PAGE. Antibodies used were as follows: polyclonal anti-PDGFRα ( 1/500), phosphor-Tyrosine clone 4G10 ( 1/1000), and monoclonal anti-p85 PI3-K ( 1/1000), (Upstate Biotechnology), anti HCMV IE1 MAB810 (Chemicon; 1/1000), anti HCMV pp65 (Novocastra, 1/1000), anti-phosphor-PDGFRα ( 1/500, pTyr 754), anti-phosphor-Akt (Ser 473, 1/1000) and total Akt ( 1/1000; all from Cell Signaling). Anti-actin polyclonal control antibody was used ( 1/500, Sigma). Immunoprecipitations were performed using protein G (Pierce) according to manufacturer's instructions.

T1 sequence (P16234 24-1089): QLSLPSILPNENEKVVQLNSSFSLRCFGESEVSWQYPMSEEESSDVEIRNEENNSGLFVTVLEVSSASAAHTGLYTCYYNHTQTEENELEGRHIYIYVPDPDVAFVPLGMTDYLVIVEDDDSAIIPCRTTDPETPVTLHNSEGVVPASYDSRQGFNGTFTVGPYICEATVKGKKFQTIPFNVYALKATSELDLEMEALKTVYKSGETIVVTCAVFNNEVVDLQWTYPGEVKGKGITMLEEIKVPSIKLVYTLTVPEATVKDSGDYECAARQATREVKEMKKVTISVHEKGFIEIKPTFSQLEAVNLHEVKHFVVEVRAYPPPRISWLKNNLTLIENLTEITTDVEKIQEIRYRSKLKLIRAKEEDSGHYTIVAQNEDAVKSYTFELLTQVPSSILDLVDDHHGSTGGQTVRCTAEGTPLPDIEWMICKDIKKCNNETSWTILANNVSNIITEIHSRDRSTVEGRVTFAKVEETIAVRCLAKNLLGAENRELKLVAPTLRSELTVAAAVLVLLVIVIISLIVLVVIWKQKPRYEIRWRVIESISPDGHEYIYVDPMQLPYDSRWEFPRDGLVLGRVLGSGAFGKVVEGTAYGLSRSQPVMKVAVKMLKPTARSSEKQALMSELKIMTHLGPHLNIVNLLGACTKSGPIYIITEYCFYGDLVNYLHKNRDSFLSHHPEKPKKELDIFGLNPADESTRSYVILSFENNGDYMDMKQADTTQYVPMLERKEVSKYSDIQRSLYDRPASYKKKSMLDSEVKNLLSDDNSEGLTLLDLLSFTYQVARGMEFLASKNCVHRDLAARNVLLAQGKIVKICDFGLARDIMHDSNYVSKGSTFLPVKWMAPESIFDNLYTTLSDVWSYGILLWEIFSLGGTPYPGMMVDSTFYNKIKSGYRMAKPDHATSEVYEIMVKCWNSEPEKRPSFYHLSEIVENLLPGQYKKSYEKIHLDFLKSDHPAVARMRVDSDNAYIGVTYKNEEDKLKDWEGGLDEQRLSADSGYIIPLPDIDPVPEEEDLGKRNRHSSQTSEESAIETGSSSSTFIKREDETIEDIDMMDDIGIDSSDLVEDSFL

IMC-3G3: humanized PDGFRα blocking antibody (ImClone Inc.)
PDGFRα phosphorylation induced by HCMV strains [1]: significantly inhibited
Akt phosphorylation induced by either HCMV or PDGF-AA [2]: abolished
